B1: RBX2 (natural protein)
chain: EDGEETCALASHSGSSGSKSGGDKMFSLKKWNAVAMWSWDVECDTCAICRVQVMDACLRCQAENKQEDCVVVWGECNHSFHNCCMSLWVKQNNRCPLCQQDWVVQRIGK
B2: ARIH2* (full-length ARIH2 with L381A, E382A and E455A residue substitutions) (enzyme)
chain: MSVDMNSQGSDSNEEDYDPNCEEEEEEEEDDPGDIEDYYVGVASDVEQQGADAFDPEEYQFTCLTYKESEGALNEHMTSLASVLKVSHSVAKLILVNFHWQVSEILDRYKSNSAQLLVEARVQPNPSKHVPTSHPPHHCAVCMQFVRKENLLSLACQHQFCRSCWEQHCSVLVKDGVGVGVSCMAQDCPLRTPEDFVFPLLPNEELREKYRRYLFRDYVESHYQLQLCPGADCPMVIRVQEPRARRVQCNRCNEVFCFKCRQMYHAPTDCATIRKWLTKCADDSETANYISAHTKDCPKCNICIEKNGGCNHMQCSKCKHDFCWMCLGDWKTHGSEYYECSRYKENPDIVNQSQQAQAREALKKYLFYFERWENHNKSLQAAAQTYQRIHEKIQERVMNNLGTWIDWQYLQNAAKLLAKCRYTLQYTYPYAYYMESGPRKKLFEYQQAQLEAEIANLSWKVERADSYDRGDLENQMHIAEQRRRTLLKDFHDT

Molecular target: neddylated CUL5 (human, UniProt Q93034 1-780, Lys724 isopeptide-linked to NEDD8)
Sequence (Q93034 whole entry): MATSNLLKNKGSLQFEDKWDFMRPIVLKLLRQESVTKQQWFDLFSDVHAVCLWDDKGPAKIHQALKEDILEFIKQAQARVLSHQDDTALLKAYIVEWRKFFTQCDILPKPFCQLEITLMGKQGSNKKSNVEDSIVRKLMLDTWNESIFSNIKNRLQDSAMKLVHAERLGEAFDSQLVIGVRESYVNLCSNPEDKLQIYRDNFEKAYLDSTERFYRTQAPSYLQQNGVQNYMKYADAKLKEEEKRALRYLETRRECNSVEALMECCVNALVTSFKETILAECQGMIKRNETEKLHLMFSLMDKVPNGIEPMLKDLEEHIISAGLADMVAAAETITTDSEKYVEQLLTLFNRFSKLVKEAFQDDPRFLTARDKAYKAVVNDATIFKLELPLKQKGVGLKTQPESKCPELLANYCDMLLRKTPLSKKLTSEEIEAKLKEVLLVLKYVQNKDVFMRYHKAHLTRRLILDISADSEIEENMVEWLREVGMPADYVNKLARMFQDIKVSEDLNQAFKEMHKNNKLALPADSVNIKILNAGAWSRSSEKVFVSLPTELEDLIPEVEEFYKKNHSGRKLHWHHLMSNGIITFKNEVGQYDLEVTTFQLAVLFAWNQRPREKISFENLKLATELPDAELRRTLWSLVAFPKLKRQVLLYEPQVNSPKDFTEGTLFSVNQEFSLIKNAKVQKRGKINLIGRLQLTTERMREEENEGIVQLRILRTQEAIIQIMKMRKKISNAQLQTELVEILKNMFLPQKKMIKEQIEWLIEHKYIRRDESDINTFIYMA
Assay: cryo-EM structure

| Binder | binding result |
| --- | --- |
| B1 | binds |
| B2 | binds |

Source: paper PMC8460447 (Nature chemical biology, 2021)
